Results from patent US20210238276A1 (INTEGRAL MOLECULAR, published 2021).
Positions count from the first letter of the chain named. Each block holds one molecule with its values, some of them ahead of it.

How the values were obtained:
Experiment in all cases: flow cytometry, alanine-scan library in HEK-293T
[1] = target: T1, hsGLUT4 R169A (human, UniProt P14672 1-509)
T1 sequence: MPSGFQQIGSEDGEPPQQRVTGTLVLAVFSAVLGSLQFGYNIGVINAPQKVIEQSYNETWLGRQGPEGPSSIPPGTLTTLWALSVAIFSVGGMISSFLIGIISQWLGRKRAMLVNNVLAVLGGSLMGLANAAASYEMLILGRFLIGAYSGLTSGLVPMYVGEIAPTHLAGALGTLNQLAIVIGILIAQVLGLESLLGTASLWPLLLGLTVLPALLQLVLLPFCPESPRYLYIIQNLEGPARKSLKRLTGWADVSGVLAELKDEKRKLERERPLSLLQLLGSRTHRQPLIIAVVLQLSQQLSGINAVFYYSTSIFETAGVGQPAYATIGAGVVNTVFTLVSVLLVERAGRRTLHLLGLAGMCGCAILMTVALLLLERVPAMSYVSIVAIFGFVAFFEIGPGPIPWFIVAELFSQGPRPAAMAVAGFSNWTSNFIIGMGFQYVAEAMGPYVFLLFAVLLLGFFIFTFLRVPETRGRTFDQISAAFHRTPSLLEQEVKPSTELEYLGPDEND
Summary of the method: (§1)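 HEK-293T cells expressing individual GLUT4 alanine mutants were stained 48 h post-transfection with anti-GLUT4 scFv MAbs (2 μg/ml), then biotinylated secondary and streptavidin-PerCP, and read by high-throughput flow cytometry. Where used, cytochalasin B (10 uM final) was given for 30 min before and during primary antibody staining.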

[2] = target: T2, hsGLUT4 P224A (human, UniProt P14672 1-509)
T2 sequence: T1 sequence with A169R, P224A
Summary of the method: as §1

[3] = target: T3, hsGLUT4 L260A (human, UniProt P14672 1-509)
T3 sequence: T1 sequence with A169R, L260A
Summary of the method: as §1

[4] = target: T4, hsGLUT4 I313A (human, UniProt P14672 1-509)
T4 sequence: T1 sequence with A169R, I313A
Summary of the method: as §1

% of binding to wild type GLUT4 [1]: 84%
% of binding to wild type GLUT4 [2]: 103%
% of binding to wild type GLUT4 [3]: 98%
% of binding to wild type GLUT4 [4]: 85%
Molecule: 1F8 (antibody)

B1: AB108 (Fc fusion)
scFv: ALTQPSSVSANLGGTVKITCSGSSGSYGWYQQKAPGSAPVTLIYRNDKRPSDIPSRFSGSESGSTGTLTITGVQAEDEAVYFCGGYDSSAGYAAFGAGTTLTVLGQSSRSSGGGGSSGGGGSAVTLDESGGGLQTPGGALSLVCKASGFTFSSHGMGWVRQAPGKGLEWVGSISTGRYTFYAPAVKGRATISRDNGQSTLRLQLNNLRAEDTGTYYCTKCAGLNGCGGGEIDAWGHGTEVIVSS
notes: Bivalent scFv-Fc; also called MAb AB108; not shown: Fc fragment of human IgG1, cloned in frame with the scFv
% of binding to wild type GLUT4 [1]: 108%
% of binding to wild type GLUT4 [2]: 56%
% of binding to wild type GLUT4 [3]: 108%
% of binding to wild type GLUT4 [4]: 39%

B2: AB111 (Fc fusion)
scFv: ALTQPSSVSANPGETVKITCSGSGSWYGWFQQKSPGSAPVTVIYSNDKRPSDIPSRFSGSKSGSTSTLTITGVQVEDEAVYYCGNWDIFGAGTTLTVLGQSSRSSGGGGSSGGGGSAVTLDESGGGLQTPGGALSLVCKASGFTFSSHGMGWVRQAPGKGLEWVASISTGRYTFYAPAVKGRATISRDNGQSTVRLQLNNLRAEDTATYYCTKCAGLNGCGGGEIDAWGHGTEVIVSS
notes: Bivalent scFv-Fc; also called MAb AB111; not shown: Fc fragment of human IgG1, cloned in frame with the scFv
% of binding to wild type GLUT4 [1]: 97%
% of binding to wild type GLUT4 [2]: 108%
% of binding to wild type GLUT4 [3]: 130%
% of binding to wild type GLUT4 [4]: 106%

% of binding to wild type GLUT4 [1]: 119%
% of binding to wild type GLUT4 [2]: 90%
% of binding to wild type GLUT4 [3]: 112%
% of binding to wild type GLUT4 [4]: 94%
B3: AB101 (scFv)
scFv: ALTQPSSVSANPGETVKITCSGSSNSYGWYQQKSPGSAPVTVIYYNDKRPSDIPSRFSGSKSDSTHTLTITGVRAEDEAVYFCGSYDSTYVGIFGAGTTLTVLGQSSRSSGGGGSSGGGGSAVTLDESGGGLQTPGGTLSLVCKASGFTFSSNAMGWVRQAPGKGLEWVAGISSDGRYTKYGSAVKGRATISRDNGQSTVRLQLNNLRAEDTGTYFCAKAFGNNYRRIYAGQIDAWGHGTEVIVSS
notes: Chicken-derived clone used as a control; the four lead clones were tested as scFv-human IgG1 Fc; also called MAb AB101
